B1: Mpv17-like protein (Mus musculus), Q99MS3-1 (parent)
chain: MASWWRAFPQAARRYPWPTNVLLYAGLFSAGDALQQRLRGGPADWRQTRRVATLAVTFHGNFNYVWLRLLERALPGRAPRTVLAKVLCDQTVGGPIALSAFYVGMSVLQGKDDIFLDLKQKFWNTYKSGLMYWPFVQLTNFSLVPVHWRTAYTGLCAFLWATFLCFSQQSGDGTLQSIFIFLRRKEASDKSPEK
partner: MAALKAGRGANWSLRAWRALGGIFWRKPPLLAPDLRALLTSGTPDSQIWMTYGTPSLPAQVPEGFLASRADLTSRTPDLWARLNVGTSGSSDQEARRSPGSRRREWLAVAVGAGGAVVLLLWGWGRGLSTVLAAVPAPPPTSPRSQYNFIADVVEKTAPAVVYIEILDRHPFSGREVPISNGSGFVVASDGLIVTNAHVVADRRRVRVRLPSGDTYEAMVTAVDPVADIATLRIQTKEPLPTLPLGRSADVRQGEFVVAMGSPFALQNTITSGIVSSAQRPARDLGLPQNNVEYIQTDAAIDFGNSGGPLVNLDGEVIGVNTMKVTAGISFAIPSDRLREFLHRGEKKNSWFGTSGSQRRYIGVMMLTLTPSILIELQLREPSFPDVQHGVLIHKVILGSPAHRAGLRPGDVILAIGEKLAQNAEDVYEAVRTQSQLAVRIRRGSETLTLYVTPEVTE

Variants of: B1
Details: with htra2_mouse Htra2, Q9JIY5
For D112A;I114A, the “effect of a mutation on the interaction” value was “decreasing interaction”.

From IntAct's records for PubMed 18772386
